Reference: IntAct's records for PubMed 24141193

B1: Protein kinase doc (Escherichia phage P1), Q06259 (parent)
chain: MRHISPEELIALHDANISRYGGLPGMSDPGRAEAIIGRVQARVAYEEITDLFEVSATYLVATARGHIFNDANKRTALNSALLFLRRNGVQVFDSPELADLTVGAATGEISVSSVADTLRRLYGSAE

Variants of: B1
Settings: with eftu1_ecoli tufA

Row | Variant | effect of a mutation on the interaction
1 | MRHISPEELIALHDANISRYGGLPGMSDPGRAEAIIGRVQARVAYEEITDLFEVSATYLVATAGGHIFNDANKRTALNSALLFLRRNGVQVFDSPELADLTVGAATGEISVSSVADTLRRLYGSAE [R64G] | disrupting interaction strength
